# Assay results taken from a protein production outcome set (Wang et al. 2014).
# Assay: label from the status in PepcDB records
# 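Note: failed if final PepcDB status was selected cloned or expressed and not failed if soluble or beyond.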
row,Sequence,protein production
1,KYTQNNFITGVRAINEFCLKSSDLEQLRKIRRRSPHEDTESFTVYLRSDVEAKSLEVWGSPEALAREKKLRKEAEIEYRERLFRNQKILREYRD,not failed
2,LDAILIADDEGCYVDVNAAACELFGVSREELLASTIADFAAPEFNFTQAWQQFREQEQMSGEFQLHRPNGTVRATEFAAVANFIPHRHLSIIRDVSDRQQAKANLQNSEQRLQLALSASS,failed
3,LEKAGDSVEITNEEAVIQYVNPAFENITLYNAREAMNKTVASLLRSPVEDAQLFEEINQTLKSGNTWKGQIRSRKKDGSYWVAQTIIVPVMDDELGRITQHIAIKQDIT,failed
4,LESKIVDISTRFINTPIDDLDREIEAALQAIGAFVDADRSYVFLFDDEAATMSNTHEWRTEATASTQSRLQNIPYAETPWFMARMRRREGPLRVPRLEDLPPDAAGLRQRLEAGNVQSLLVLPMLNDQDLIGFVGFDAVRQQRDWDADTVMLLRVLSDAISNALQRKTAEKEMLAAKEEAEDANRMKS,failed
5,LFTHRPIHTHTVTFSGGGENSAMYASIGFYDDRGWTLADHVKRITANIKNSFYWNEDKIKATISAQGNLRNQNSPGTIPQRRNTVIGTFERDFDINPFSYALSTSRTLRPHNADGKREFYRNNWAPFNILNEYENNYLKTEVLDLKLQGELSYRLNDHIEVKGLAMVRHAVTKSSHFIAEASNVVQAFRANETPYVARENIYLLKNKDDPMQLPGVALTHGGIFNKTETSLRSYLGRLALDYNRQLSEHNIRAFGFTEIRYADRSMNPFQGYGIQYDRGNQVFSNPLIFEKLANEGDTYFSLTERYERGVTLSGSATYGYAEKYIFNGVFNYEGANTAGKYSRSRWLPTWNIGAKWNLDQEKFMRKHTTISRLALRTSYGLTAKMNEQAVNSTTVFKHVMVNRTLLKDRENALRILHLENRDLTWEKMYELNFGLELGLFGNRISATFDVYQRNSFDLIDLIRTSGVGGQYYKYANFGDMRTRGVELAIQTQNILTDKFSWSTTVT,failed
6,LGGVAPEQVAYAVEQAGKRLQERDNAGVKVRPARLTDLDALEGMVAYWAGLGENLPRNRNELVRDIGSFAVAEHHGEVTGCASLYVYDSGLAEIRSLGVEAGWQSQGQGKAIVQHLVEKAREMAIKKVFVLTRVPEFFMKQDFIPTSRSLLPEKVLKDCDQCPRQH,failed
7,LGIAINEMIRMLRAARDEDDRRNWLKDGYGQVSAALTGDLTTEQLADAAIGLIGRYLDAGRGVFYLYRDAEQRLDLIGSYMYTERNNLGASFALGEGAVGQVARERKPIILEVSGDDAAPIVTGTMLALPRYTYTYPLLHEKELVGVIELSSFDHFDERKLEFLANVGGMLASFL,failed
8,LGNAMNIPAPIRIEAFDNSNIMGTNPVSAMVVFIDGRPAKNEYRKYKIKTVQGPDDYASMREVIYRRYSRVLKEGLPFPDLILIDGGKGQVDVAKDVLANQLGVDIPVAGLAKNDKHKTSELLFGPNLEVVPLERNSQEFFLLQRIQDEVHRFAI,not failed
9,LKCSTVVCVICLEKPKYRCPACRVPYCSVVCFRKHKEQCNPET,not failed
10,LKLEVVEDKQYGRLANRIENVVSQERTRKKFESLVSDSPDGIVHLTTNGTILSVNPSMAGRLGADPDTLVGQQLSAVMDSEAANQRLEAGKSAVENGTATRSEDAVGGRHYHNQYIPVDSHR,failed
11,LKYILETKLEEERNHLEELLEKVEEDYEGINYDEVLEALKLFKDNYELPKSKIKRKIRIFLIKENILFLNPQKGTLKPQSYLVWNAIKRML,not failed
12,LLLTRPDEECAALAASLGEAGVHSSSLPLLAIDPLEETPEQRTLMLDLDRYCAVVVVSKPAARLGLERLDRYWPQPPQQTWCSVGAATAAILEAYGLDVTYPEQGDDSEALLALPAFQDSLRVHDPKVLIMRGEGGREFLAERLRGQGVQVDYLPLYRRRAPDYPAGELLARVRAERLNGLVVSSGQGLQNLYQLAAADWPEIGRLPLFVPSPRVAEMARELGAQRVIDCRGASAPALLAALTSAA,failed
13,LPDQRTVLYVHGGAWFQDPLENHFEYLDLLVDALDARVIMPVYPKIPHRDYRTTFELLTKIYKRLLTKIDEPENLVIIGDSAGGQIALAFAQMLKKEQLSQPGHIVLISPVLDATFKNPEARKYEKEDPMLGIDGSKYLVELWAGDAPLDDYKMSPMNGDLEGLGHITLTVGTKETLYPDAVKFSHMLNDKGIKHQFIPGYNLFHIYPLFPIPERQRFLEQLKKIIVTKEL,not failed
14,LPIIVKWGGQEYSVTTLSKDDTVLDLKQFLKTLTGVLPERQKLLGLKVKGKPAENDVKLGALKLKPNTKIMMMGTRE,not failed
15,LPLTDALRKALAEAPKHTANIARKRHILFIGKLMRDQDQEAILVLLDQLDASTRQYNERFHNLERWRDRLIAGDDADLEKFVIEYPDADRQQLRSLIRQAQHEVARNKP,failed
16,LPSFRHKVFALVLVGVFVGLGAYLVYMSKAYSYLSDDPRVCINCHVMGPYYATWQHSSHAMRATCNDCHVPHNSIFSKYYFKASDGLRHSYVFTMRNEPQRMQAISASQAVIYDNCVRCHAQLNQEFVRTGMLTRADIRTAEEKACWDCHRDVPHGGKNS,failed
17,LQASCSDDQEHRLGSLDFYTGVFALEKSRIAEISNRATLELQKMATSGEPMWLRSVETGREILNYDEYLKEFPQAQASSFPGRKTIEASRDAGIVFMDAHKLAQSFMDVGQWKETFACLISKAATVDVIRQGEGPSRIDGAIQLMFGEMQLLTPVVPTREVYFVRSCRQLSPEKWAIVDVSVSVEDSNTEKEASLLKCRKLPSGCIIEDTSNGHSKVTWVEHLDVSASTVQPLFRSLVNTGLAFGARHWVATLQLHCERLVFFMATNVPTKDSLGVTTLAGRKSVLKMAQRMTQSFYRAIAASSYHQWTKITTKTGQDMRVSSRKNV,not failed
18,LRELDWFARRGLKEPNLAELLDLVALGSVADVVPLDANNRILVHQGLARIRAGRARPGLRALLEVAGRPPVRITSTDLGFILGPRLNAAGRLDDMSLGIECLLCDDEALARDMAVQLDQLNQDRKAIEQGMQREALAQLKELSLEQLPFGLCLFDADWHQGVIGILASRLKERYHRPTIAFADAGDGSLKGSARSIPGFHIRDALDAVAARHPGLISKFGGHAMAAGLSLPQENFGAFSAAFDAEVRRQLAEEDLAGRLLSDGQLSIQEFHLELARALRQAGPWGQHFPEPMFHGVFQLVQQRIVGERHLKLVLKSECGSLQLDGIAFNIDREQWPNPTVRWAELAYKLDVNEFRGQESVQLMIVHMAPR,failed
19,LRKSEERWQLAIVGTDEAIWDWDILTNHTYRSDRWFEMLGYERHEMSTFDDEWSIRIHPDDYNRVMAAQAAYLRREVPVYYTEYRLRCKDGNYKWFRSRAKGVWDEQGNPIRLVGSLGDITGRKSIELD,not failed
20,LRQQRLIWVVLALSCVIVISLLMLWRYTRFRSEAEAALIAETGFRRAMENSMSTGMRVLDMEGRIAYVNPAFCRMIGWNEADLIGRSPPFPYWVPGRHDQHQHTLEVLTSGKTPSSGLEVEAQRRDGSRFTARMYVSPLLDPNGDQIGWMTSMTDIT,failed
21,LRVFSSDGKLIAEFGEMRRTPIRFAEIPPNFINALLSAEDDNFANHYGVDPSSLMRAATQLVKSGHIQSGGSTITMQVAKNFFLTSERSFSRKTTEILLALQIERQLTKDEILELYVNKIYLGNRAYGIEAAAQVYYGKSIRDVSLAQMAMIAGLPKAPSRFNPLANA,failed
22,LSQNTLAENIYNIIISDISRKWALKDISDSLYMSCSTLKRKLKQEHTSFSEVYLNARMNKATKLLRNSEYNITRVAYMCGYDSASYFTCVFKKHFKTTPSEFLAFLSSSRHQ,failed
23,LTRSNISYFSIGSGTPIIFLHGLSLDKQSTCLFFEPLSNVGQYQRIYLDLPGMGNSDPISPSTSDNVLETLIEAIEEIIGARRFILYGHSYGGYLAQAIAFHLKDQTLGVFLTCPVITADHSKRLTGKHINILEEDINPVENKEYFADFLSMNVIINNQAWHDYQNLIIPGLQKEDKTFIDQLQNNYSFTFEEKLKNINYQFPFKIMVGRNDQVVGYQEQLKLINHNENGEIVLLNRTGHNLMIDQREAVGFHFDLFLDELNSN,failed
24,LVEDFERELGRMLSPFELEDLQKTVSDDKTDPDLVRSALREAVFNGKTNWNYIQAILRNWRHEGISTLRQVEE,not failed
25,LVTISSTSAASLPTMPPSGYDQVRNGVPRGQVVNISYFSTATNSTRPARVYLPPGYSKDKKYSVLYLLHGIGGSENDWFEGGGRANVIADNLIAEGKIKPLIIVTPNTNAAGPGIADGYENFTKDLLNSLIPYIESNYSVYTDREHRAIAGLSMGGGQSFNIGLTNLDKFAYIGPISAAPNTYPNERLFPDGGKAAREKLKLLFIACGTNDSLIGFGQRVHEYCVANNINHVYWLIQGGGHDFNVWKPGLWNFLQMADEAGLTRDGNT,not failed
26,LYDQGGPVEILPFLYLGSAYHASRKDMLDALGITALINVSANCPNHFEGHYQYKSIPVEDNHKADISSWFNEAIDFIDSIKNAGGRVFVHCQAGISRSATICLAYLMRTNRVKLDEAFEFVKQRRSIISPNFSFMGQLLQFESQVLAPHCSAEAGSPAMAVLDRGTSTTTVFNFPVSIPVHSTNSALSYLQSPITTSPSC,failed
27,LYQGFEKEFGRPLSPIELEMIGQWLNTDHYSPELIRLALREAVLNQAYSLKYIDRILLAWERKNITTKEQVAA,failed
28,MAAALPRTLGELQLYRILQKANLLSYFDAFIQQGGDDVQQLCEAGEEEFLEIMALVGMASKPLHVRRLQKALRDWVTNPGLFNQPLTSLPVSSIPIYKLPEGSPTWLGISCSSYERSSNAREPHLKIPKCAATTCVQSLGQGKSDVVGSLALQSVGESRLWQGHHATESEHSLSPADLGSPASPKESSEALDAAAALSVAECVERMAPTLPKSDLNEVKELLKTNKKLAKMIGHIFEMNDDDPHKEEEIRKYSAIYGRFDSKRKDGKHLTLHELTVNEAAAQLCVKDNALLTRRDELFALARQISREVTYKYTYRTTKSKCGERDELSPKRIKVEDGFPDFQDSVQTLFQQARAKSEELAALSSQQPEKVMAKQMEFLCNQAGYERLQHAERRLSAGLYRQSSEEHSPNGLTSDNSDGQGERPLNLRMPNLQNRQPHHFVVDGELSRLYPSEAKSHSSESLGILKDYPHSAFTLEKKVIKTEPEDSR,not failed
29,MAADKLADEVACMANTPGGGALIVGIEDKTGRIIGTELDIDWLRQGIFTRIDVAPDVVAKRVLGQRVLAIYVAAAAEPIEDTSDRLRWRVGDSCRPVDLEHHHHHH,failed
30,MAADVVFPGLCVFLSAGLLLALVHGRRVGRRADRQCRHLAAITDTMSEGFYVVDGDDRIVMANAAAGRILGYTQDDLIGACAHALFHARSADDPDPVPLEECRLNRAVRERRAAFLDVGHFRHRSGKIIAVEVSCNPVADTLAEEGRRGGLLGWLLDGDDAEGAPGALLSMVTFVDITARRESEAAVIKLSHAVEQSSASIVITDADGRIEYANPAFTKISGYTAQEAIGRRPSILKSGLVPAETYRALWQTITNGGEWRGEFHNRRKDGTLYWEMASISPIRDARGKITNFVAVKDDVTERKAIESELYHRANYDALTGLPNRQLLLDRVSTALDLARRHDRRVAVMFMDIDRFKQINDSMGHAAGDVLLKQAASRLAAVLRPQDTLGRLGGDEFLVVAPGLRWESEATALASRLLEVARRPFTIDGREVYVSVSIGVSLGPVDGTTAQALMRNADAAMYLAKGGGRDAAHFFTPDIEAAARRRMLIENGLRTAVSDGSLYLALQPIIACADHTMIKAEALLRWTHPQLGGVPPSEFIPIAEESGLIRAIGAWVIEEAARLLVSLDPPRDGAFRLGINIASSQFTGGLHHHVAGMLARYDLDPRMLEIEITERMLLDPSPAILEQVDALRAMGVSIAIDDFGTGYSALSYLSVFHVDTLKIDRAFVSVMTDEARSQALIGAIVALGHELGCAVVAEGVETADQARLLGELAVDALQGYFLGRPTTAEAISDRLNPGTGRPYDKAALGTEFAEGGDLGLSVGAL,failed
